Data as given in patent US20230220005A1, “S100A8-INHIBITING PEPTIDE AND DISEASE THERAPEUTIC AGENT CONTAINING SAME” (TOKYO WOMEN'S MEDICAL UNIVERSITY, priority 2020, published 2023).
Ends that are not written are not given here.

What was measured:
TLR4/MD-2 [1] = target: T1, TLR4/MD-2 (Homo sapiens, UniProt O00206+Q9Y6Y9); assay: ELISA: binding of TLR4/MD-2 to peptides immobilized on plate; settings: for binding to TLR4/MD-2 of alanine-substituted peptides: alanine scanning, amino terminus acetylated, carboxyl terminus amidated, immobilized on ELISA plate, FIG. 3
Description: Furthermore, for the purpose of narrowing the binding region with the TLR4/MD-2 complex, a peptide of 10 amino acids in the carboxyl terminal amino acid sequence was synthesized. At this time, the sequence can be comprehensively analyzed by overlapping by five amino acids. The synthesized peptides were immobilized on an ELISA plate (Thermo Fisher Scientific Inc.; Maxisorp), and then non-specific binding was blocked with a blocking buffer. Each well was washed with PBS-Tween 20 and then incubated with a high-purity human TLR4/MD-2 recombinant protein, then each well was incubated with an anti-TLR4 antibody (Abcam) and an anti-rabbit IgG-HRP labeled antibody (GE Healthcare), and finally a reaction with TMB as an HRP substrate was terminated with an equivalent of 1 N sulfuric acid. The amount of bound TLR4/MD-2 was quantified by measuring the absorbance at OD 450 nm.
In addition, acetylation was introduced at the amino terminus of these peptides, and amidation modification was introduced at the carboxyl terminus. These 10 peptides were immobilized on an ELISA plate (Thermo Fisher Scientific Inc.; Maxisorp) to verify binding with TLR4/MD-2.

TLR4/MD-2 [2] = target: T1, TLR4/MD-2; assay: Chain length screening: divalent peptides spot-synthesized on cellulose membrane sheet reacted with TLR4/MD-2; format: binding; settings: FIG. 7(A)
Description: (§1) In order to identify an essential region in the Peptide3A5 sequence, a series of partial sequence peptides based on the amino acid sequence of Peptide3A5, which were obtained by deleting the amino acid from the amino terminal side or the carboxyl terminal side, were spot-synthesized as divalent peptides on a cellulose membrane sheet using the method of Patent Literature 1. Several kinds of affinity peptides with high affinity to TLR4/MD-2 were obtained by reacting the sheet with TLR4/MD-2 (FIG. 7A). Candidate peptides were subjected to a competition assay similar to Example 1 (FIG. 2).

[3] = target: T2, binding of S100A8 to TLR4/MD-2 complex (Homo sapiens, UniProt O00206+Q9Y6Y9); assay: Competition ELISA: binding of S100A8 to TLR4/MD-2 complex; settings: for competitive inhibitory activity on binding of S100A8 to TLR4/MD-2 complex, candidate peptides: chain length screening candidates, FIG. 7(B); for competitive activity in competition assay, divalent and tetravalent peptides: FIG. 8
Description: Pre-purified S100A8 protein was immobilized on an ELISA plate. Non-specific binding was blocked with blocking buffer in the same manner as in Example 1. Peptides #1 to #6 were added simultaneously with TLR4/MD-2, and the mixture was reacted. Each well was washed with PBS-Tween 20, then incubated with an anti-TLR4 antibody (Abcam) and an anti-rabbit IgG-HRP labeled antibody (GE Healthcare) subsequently, and finally a reaction with TMB as an HRP substrate was terminated with an equivalent of 1 N sulfuric acid. Bound TLR4/MD-2 was quantified by measuring the absorbance at OD 450 nm.
as §1
A competition assay was performed using divalent ILVIK (SEQ ID NO. 2), divalent Peptide3A5 (SEQ ID NO. 1), and tetravalent ILVIK. The tetravalent ILVIK was also synthesized using the method of Patent Literature 1.

[4] = target: T2, binding of S100A8 to TLR4/MD-2 complex; assay: Competition by immunoprecipitation with anti-TLR4 antibody and Western blotting; settings: 10 times the molar amount of peptide; S100A8 detected by Western blotting; FIG. 2B
Description: The TLR4/MD-2 complex and S100A8 were mixed in a tube. At this time, 10 times the molar amount of each of Peptides #1 to #6 was added, and immunoprecipitation was performed with an anti-TLR4 antibody. The immunoprecipitate was washed several times with a washing buffer, and the final pellet was electrophoresed by SDS-PAGE. Then, S100A8 and TLR4 were detected by Western blotting using an anti-S100A8 antibody and an anti-TLR4 antibody.

[5] = system: SW480 cells subcutaneous tumor; assay: Antitumor activity in SW480 xenograft model; format: in vivo; settings: mouse, two weeks
Description: (§2) First, two weeks after transplantation of SW480 cells subcutaneously in a mouse, the size of the subcutaneous tumor was measured, and confirmed to be equivalent tumor size. The peptide was administered to the abdominal cavity at the indicated concentrations twice a week, and the size of the tumor was measured over time. After two weeks, the size of the subcutaneous tumor was measured, and the subcutaneous tumor was collected.
The divalent ILVIK was identified as an S100A8-inhibiting peptide candidate by chain length screening, and influence of the divalent ILVIK on mouse subcutaneous tumors was examined in the same manner as in Example 5 (FIG. 6). First, two weeks after transplantation of SW480 cells subcutaneously in a mouse, the size of the subcutaneous tumor is measured, and confirmed to be equivalent tumor size. The peptide was administered to the abdominal cavity at the indicated concentrations twice a week, and the size of the tumor was measured over time. After two weeks, the size of the subcutaneous tumor was measured, and the subcutaneous tumor was collected.
as §2, with “tetravalent ILVIK” for “peptide”, “concentrations (1 mg/kg, 5 mg/kg, 10 mg/kg)” for “concentrations”

[6] = system: IL-8 mRNA expression in human colorectal cancer SW480 cells; assay: IL-8 mRNA induction by S100A8 in SW480 cells; format: cell-based; settings: SW480 cells pretreated with peptide, stimulated with S100A8 recombinant protein, after 5 hours; FIG. 4
Description: Human colorectal cancer SW480 cells express TLR4, and induce IL-8 by S100A8 stimulation. In order to verify inhibitory activity of peptides isolated so far, after pretreating divalent Peptide #3 or divalent Peptide3A5, the cells were stimulated with S100A8 recombinant protein, and the mRNA expression of IL-8 after 5 hours was analyzed. The divalent Peptide #3 and the divalent Peptide3A5 were prepared according to the method of Patent Literature 1 described above.

[7] = peptide to the abdominal cavity twice a week, FIG. 6, FIG. 9

T1 sequence (O00206 24-631 limits assumed): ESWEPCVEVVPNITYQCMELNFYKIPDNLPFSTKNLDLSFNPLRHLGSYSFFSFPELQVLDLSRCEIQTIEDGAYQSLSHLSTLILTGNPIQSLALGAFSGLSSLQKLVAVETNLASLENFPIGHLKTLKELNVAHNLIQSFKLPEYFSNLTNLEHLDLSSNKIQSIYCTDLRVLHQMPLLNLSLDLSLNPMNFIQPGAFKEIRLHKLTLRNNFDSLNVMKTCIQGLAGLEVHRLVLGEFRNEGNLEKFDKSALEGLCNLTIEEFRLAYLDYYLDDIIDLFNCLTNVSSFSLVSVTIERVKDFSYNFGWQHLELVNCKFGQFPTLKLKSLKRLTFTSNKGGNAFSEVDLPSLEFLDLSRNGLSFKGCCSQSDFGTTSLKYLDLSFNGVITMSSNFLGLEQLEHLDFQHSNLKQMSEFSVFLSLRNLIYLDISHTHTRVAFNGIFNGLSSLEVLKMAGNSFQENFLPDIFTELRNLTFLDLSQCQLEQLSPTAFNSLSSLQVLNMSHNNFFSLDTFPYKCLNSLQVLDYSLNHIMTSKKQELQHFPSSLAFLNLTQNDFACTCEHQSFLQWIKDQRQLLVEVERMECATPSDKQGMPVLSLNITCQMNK
T1 sequence (Q9Y6Y9 19-160): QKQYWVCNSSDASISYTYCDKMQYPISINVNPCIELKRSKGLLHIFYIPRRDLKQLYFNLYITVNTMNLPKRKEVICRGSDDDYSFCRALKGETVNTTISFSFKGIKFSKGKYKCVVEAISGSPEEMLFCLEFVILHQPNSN
T2 sequence (O00206 24-631 limits assumed): as the sequence (O00206 24-631 limits assumed) above
T2 sequence (Q9Y6Y9 19-160): as the sequence (Q9Y6Y9 19-160) above

FQEFAILVIK [Peptide3A5]
binding to TLR4/MD-2 of alanine-substituted peptides (TLR4/MD-2 [1]): higher affinity for TLR4/MD-2 than Peptide #3

Gln-Glu-Phe-Ala-Ile-Leu-Val (QEFAILV) [SEQ ID NO: 4]
affinity for TLR4/MD-2 of partial sequence peptides (TLR4/MD-2 [2]): high affinity | competitive inhibitory activity on binding of S100A8 to TLR4/MD-2 complex, candidate peptides [3]: competitive inhibitory activity

Ile-Leu-Val-Ile-Lys (ILVIK) [SEQ ID NO: 2]
affinity for TLR4/MD-2 of partial sequence peptides (TLR4/MD-2 [2]): high affinity | competitive inhibitory activity on binding of S100A8 to TLR4/MD-2 complex, candidate peptides [3]: competitive inhibitory activity

Peptide3A6: Peptide #3 (SEQ ID NO: 13) with position 6 from the N-terminal side substituted with alanine; acetylated amino terminus, amidated carboxyl terminus (Ac-FQEFLALVIK-NH2)
binding to TLR4/MD-2 of alanine-substituted peptides (TLR4/MD-2 [1]): reduced

Peptide3A7: Peptide #3 (SEQ ID NO: 13) with position 7 from the N-terminal side substituted with alanine; acetylated amino terminus, amidated carboxyl terminus (Ac-FQEFLIAVIK-NH2)
binding to TLR4/MD-2 of alanine-substituted peptides (TLR4/MD-2 [1]): reduced

Peptide3A8: Peptide #3 (SEQ ID NO: 13) with position 8 from the N-terminal side substituted with alanine; acetylated amino terminus, amidated carboxyl terminus (Ac-FQEFLILAIK-NH2)
binding to TLR4/MD-2 of alanine-substituted peptides (TLR4/MD-2 [1]): reduced

Peptide3A10: Peptide #3 (SEQ ID NO: 13) with position 10 from the N-terminal side substituted with alanine; acetylated amino terminus, amidated carboxyl terminus (Ac-FQEFLILVIA-NH2)
binding to TLR4/MD-2 of alanine-substituted peptides (TLR4/MD-2 [1]): reduced

Phe-Gln-Glu-Phe-Ala-Ile-Leu-Val-Ile (FQEFAILVI) [SEQ ID NO: 3]
affinity for TLR4/MD-2 of partial sequence peptides (TLR4/MD-2 [2]): high affinity | competitive inhibitory activity on binding of S100A8 to TLR4/MD-2 complex, candidate peptides [3]: competitive inhibitory activity

Phe-Gln-Glu-Phe-Leu-Ile-Leu-Val-Ile-Lys (FQEFLILVIK) [Peptide #3]
affinity for TLR4/MD-2 (amount of bound TLR4/MD-2, absorbance at OD 450 nm) (TLR4/MD-2 [1]; overlapping 10 amino acid peptides immobilized on ELISA plate, FIG. 1): high affinity for TLR4/MD-2 | competitive inhibitory activity on the binding of S100A8 to the TLR4/MD-2 complex (immunoprecipitation) [4]: had competitive inhibitory activity | competitive inhibitory activity on the binding between S100A8 and the TLR4/MD-2 complex (ELISA) ([3]; S100A8 immobilized, peptide added simultaneously with TLR4/MD-2, FIG. 2A): found to have competitive inhibitory activity

divalent ILVIK: divalent peptide containing two ILVIK (SEQ ID NO. 2) sequences (also: divalent linkage of two copies (linker not given here))
development of subcutaneous tumor (tumor size) [5, 7]: suppressed the development of mouse subcutaneous tumor in a concentration-dependent manner | competitive activity in competition assay, divalent and tetravalent peptides [3]: almost similar competitive activity as the divalent Peptide3A5

divalent Peptide3A5: divalent peptide containing two Peptide3A5 (SEQ ID NO. 1) sequences, prepared according to the method of Patent Literature 1 (chain 1 FQEFAILVIK; chain 2 FQEFAILVIK; also: divalent linkage of two copies (linker not given here))
development of subcutaneous tumor (tumor size) [5, 7]: suppressed the development of subcutaneous tumor in mice in a concentration-dependent manner | expression of mRNA of IL-8 induced by S100A8 [6]: remarkably inhibited | competitive inhibitory activity, monovalent versus divalent ([3]; various concentrations added simultaneously with TLR4/MD-2 complex, FIG. 5): showed the competitive inhibitory activity at a lower concentration as compared with the monovalent type

divalent Peptide #3: divalent peptide containing two Peptide #3 sequences, prepared according to the method of Patent Literature 1 (FQEFLILVIK)
expression of mRNA of IL-8 induced by S100A8 [6]: remarkably inhibited

tetravalent ILVIK: tetravalent peptide containing four ILVIK sequences, synthesized using the method of Patent Literature 1
development of subcutaneous tumor (tumor size) ([5]; 1 mg/kg, 5 mg/kg, 10 mg/kg to the abdominal cavity twice a week, FIG. 10): suppressed the development of mouse subcutaneous tumors in a concentration-dependent manner | competitive activity in competition assay, divalent and tetravalent peptides [3]: almost the same competitive activity as the divalent ILVIK
